We go through 1 molecule from PMC10400651, “Gain-of-function mutant p53 together with ERG proto-oncogene drive prostate cancer by beta-catenin activation and pyrimidine synthesis”.

The target of this series is p53 WT (UniProt P04637 1-393). The series is described as follows: EMSA; Thermo EMSA kit (20148) protocol; 6% native PAGE; supershift with 1 ug anti-p53 for 1 h at room temperature; recombinant p53 eluted in PBS; buffer, salt and pH. To be noted: protein: recombinant; tags: untagged after thrombin cleavage of GST; chain copies: 4; label: biotin; blunt.
p53 WT, sequence (P04637 whole entry): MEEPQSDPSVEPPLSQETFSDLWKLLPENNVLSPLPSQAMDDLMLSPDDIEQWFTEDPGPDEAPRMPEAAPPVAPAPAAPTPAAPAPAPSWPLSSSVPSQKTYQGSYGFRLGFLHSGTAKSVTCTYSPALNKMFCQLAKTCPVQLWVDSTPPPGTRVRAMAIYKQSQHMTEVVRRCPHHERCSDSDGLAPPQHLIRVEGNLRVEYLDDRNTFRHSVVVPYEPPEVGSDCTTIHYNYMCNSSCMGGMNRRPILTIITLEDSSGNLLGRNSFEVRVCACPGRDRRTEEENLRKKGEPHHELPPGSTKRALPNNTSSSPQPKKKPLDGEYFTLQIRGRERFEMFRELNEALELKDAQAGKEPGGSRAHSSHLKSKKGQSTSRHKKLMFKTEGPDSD

B1: CTNNB1-probe1 (MP53BS) (dsDNA)
DNA 1: GCCCCCTCGCGCCCCGCCCCTTGTC
DNA 2: GACAAGGGGCGGGGCGCGAGGGGGC
On to B1, for which the binding result is “no binding”.
